Source: EP4703385A1 (Fortvita Biologics Inc., dated 2026)

T1: Human CD40 Ligand/TNFSF5 Protein, His, Flag Tag, active trimer (MALS verified) (human, UniProt P29965 108-261, limits assumed)
T1 construct: Bought protein, described as an active trimer; The order of the CD40L part and the tags is not known; also called CD40L protein; CD40L (Acro CDL-H52Db); not shown: His tag and Flag tag
T1 sequence (looked up): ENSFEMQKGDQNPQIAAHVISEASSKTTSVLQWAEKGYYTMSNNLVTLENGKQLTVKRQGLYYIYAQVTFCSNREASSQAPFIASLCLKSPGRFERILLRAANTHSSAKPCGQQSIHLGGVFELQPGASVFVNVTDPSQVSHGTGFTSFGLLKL


Target: T1, Human CD40 Ligand/TNFSF5 Protein, His, …
Experiment: bio-layer interferometry (ForteBio); antibody 100 nM, human CD40L 100 nM, 30 C

Kd	Binder
297 pM	Hz33B9C5 (antibody, human IgG1, kappa, L234A L235A, V domains shown, Expressed in ExpiCHO cells; also called Antibody Hz33B9C5; humanized anti-CD40L antibody Hz33B9C5) VH: QVQLVESGGGLVKPGGSLRLSCAASGFTFSDYYMYWIRQAPGKGLEWVSTISGGGTYTYSPDSVKGRFTISRDNAKNSLYLQMNSLRAEDTAVYYCARGEPGLAYWGQGTLVTVSS VL: DIVMTQSPDSLAVSLGERATINCKASQSVDYYGDSYMHWYQQKPGQPPKLLIYASSNLESGVPDRFSGSGSGTDFTLTISSLQAEDVAVYYCQQSHEDPWTFGGGTKVEIKR
315 pM	Hz47E2 (antibody, human IgG1, kappa, L234A L235A, V domains shown, Expressed in ExpiCHO cells; also called Antibody Hz47E2; humanized anti-CD40L antibody Hz47E2) VH: EVQLVESGGGLVKPGGSLRLSCAASGFTFSDYAMSWVRQAPGKGLEWVSEISTVHTYTYYSDAVAGRFTISRDNAKNSLYLQMNSLRAEDTAVYYCARDRVLDYWGQGTLVTVSS VL: DIVMTQSPDSLAVSLGERATINCRASESVEYYDTSLMQWYQQKPGQPPKLLIYAASNLESGVPDRFSGSGSGTDFTLTISSLQAEDVAVYYCQQTKKLPWTFGQGTKVEIKR
